Tested on: Escherichia coli TOP10
Experiment: shrunken log2 fold change of peptide-encoding DNA abundance (4.5 h post-induction vs induction); higher = less antimicrobial activity (less host growth inhibition)
Conditions: time post-induction: 4.5 h; library: site-saturation at positions 5, 18, 19, 20
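Also: peptides expressed intracellularly from a pBAD plasmid library in pooled LB shake-flask culture, induced with 0.3% L-arabinose, DNA abundance read by NGS, three biological replicates, DESeq2 with apeglm shrinkage.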

Sequence | shrunken log2 fold change
RRIRERPPRLPRPRPRPPRYPRP | -0.202
RRIRNRPPRLPRPRPRPADMPRP | -0.00154
RRIRQRPPRLPRPRPRPQRMPRP | -0.0094
RRIRPRPPRLPRPRPRPQWGPRP | 0.132
RRIRTRPPRLPRPRPRPKYDPRP | -0.434
RRIRNRPPRLPRPRPRPPYPPRP | -0.0162
RRIRRRPPRLPRPRPRPIDKPRP | -0.0465
RRIRGRPPRLPRPRPRPTFFPRP | 0.412
RRIRIRPPRLPRPRPRPTIRPRP | -0.995
RRIRFRPPRLPRPRPRPGWYPRP | -0.463
RRIRYRPPRLPRPRPRPGTMPRP | -0.139
RRIRVRPPRLPRPRPRPANHPRP | -0.0489
RRIRGRPPRLPRPRPRPNHGPRP | -0.178
RRIRSRPPRLPRPRPRPNVKPRP | -0.332
RRIRHRPPRLPRPRPRPIRVPRP | -0.361
RRIRIRPPRLPRPRPRPTLAPRP | 0.236
RRIRHRPPRLPRPRPRPTPEPRP | -0.0453
RRIRNRPPRLPRPRPRPHNTPRP | -0.643
RRIRTRPPRLPRPRPRPKSDPRP | -0.146
RRIRHRPPRLPRPRPRPMCEPRP | -0.293
RRIRDRPPRLPRPRPRPEFCPRP | 1.14
RRIRCRPPRLPRPRPRPRRMPRP | 0.00514
RRIRDRPPRLPRPRPRPTADPRP | 0.133
RRIRARPPRLPRPRPRPDVTPRP | 0.533
RRIRKRPPRLPRPRPRPQYTPRP | -0.156

Sequence | shrunken log2 fold change
RRIRGRPPRLPRPRPRPYDVPRP | -0.00115
RRIRERPPRLPRPRPRPGPQPRP | 0.231
RRIRRRPPRLPRPRPRPHIWPRP | -0.0694
RRIRMRPPRLPRPRPRPTLLPRP | 0.2
RRIRKRPPRLPRPRPRPPMVPRP | 0.296
RRIRWRPPRLPRPRPRPTTGPRP | 0.384
RRIRIRPPRLPRPRPRPMAAPRP | 0.403
RRIRGRPPRLPRPRPRPDDLPRP | 0.0487
RRIRRRPPRLPRPRPRPGRWPRP | 0.591
RRIRIRPPRLPRPRPRPLMMPRP | -1.03
RRIRMRPPRLPRPRPRPDKYPRP | -0.212
RRIRKRPPRLPRPRPRPKARPRP | 0.0808
RRIRWRPPRLPRPRPRPWIMPRP | -0.0381
RRIRMRPPRLPRPRPRPMCMPRP | -0.179
RRIRQRPPRLPRPRPRPLRTPRP | 0.691
RRIRWRPPRLPRPRPRPYYYPRP | -0.473
RRIRCRPPRLPRPRPRPWLTPRP | -0.117
RRIRERPPRLPRPRPRPPIIPRP | -0.562
RRIRKRPPRLPRPRPRPYMFPRP | -0.109
RRIRERPPRLPRPRPRPGNKPRP | -0.00852
RRIRNRPPRLPRPRPRPNLFPRP | -0.225
RRIRVRPPRLPRPRPRPCWYPRP | -0.544
RRIRPRPPRLPRPRPRPLVAPRP | 0.101
RRIRQRPPRLPRPRPRPAPDPRP | 0.261
RRIRIRPPRLPRPRPRPRTMPRP | -0.377

Sequence | shrunken log2 fold change
RRIRHRPPRLPRPRPRPMSIPRP | -0.0719
RRIRDRPPRLPRPRPRPPVVPRP | -0.0109
RRIRDRPPRLPRPRPRPHVFPRP | -0.0358
RRIRHRPPRLPRPRPRPWYEPRP | -1.06
RRIRYRPPRLPRPRPRPTCHPRP | -1.16
RRIRTRPPRLPRPRPRPLTRPRP | 0.252
RRIRTRPPRLPRPRPRPACHPRP | 0.049
RRIRHRPPRLPRPRPRPMLHPRP | 0.195
RRIRGRPPRLPRPRPRPTKFPRP | 0.458
RRIRNRPPRLPRPRPRPNHAPRP | -0.0192
RRIRHRPPRLPRPRPRPGGGPRP | 0.684
RRIRVRPPRLPRPRPRPAAKPRP | 0.348
RRIRCRPPRLPRPRPRPRWAPRP | 0.453
RRIRRRPPRLPRPRPRPNRNPRP | 0.0469
RRIRFRPPRLPRPRPRPQMIPRP | -0.484
RRIRCRPPRLPRPRPRPGVEPRP | 0.0401
RRIRYRPPRLPRPRPRPPNIPRP | -0.659
RRIRMRPPRLPRPRPRPLPVPRP | 0.872
RRIRKRPPRLPRPRPRPRMIPRP | -0.00692
RRIRSRPPRLPRPRPRPVGQPRP | 0.236
RRIRRRPPRLPRPRPRPICMPRP | 0.296
RRIRHRPPRLPRPRPRPQFFPRP | -0.619
RRIRLRPPRLPRPRPRPETWPRP | 0.0117
RRIRPRPPRLPRPRPRPETHPRP | 0.221
RRIRPRPPRLPRPRPRPATYPRP | -0.46

Sequence | shrunken log2 fold change
RRIRSRPPRLPRPRPRPNFSPRP | -0.112
RRIRRRPPRLPRPRPRPIYAPRP | 3.39
RRIRIRPPRLPRPRPRPWSNPRP | -0.0121
RRIRMRPPRLPRPRPRPGCTPRP | 0.245
RRIRNRPPRLPRPRPRPGGYPRP | -0.0538
RRIRRRPPRLPRPRPRPYPDPRP | -0.0558
RRIRWRPPRLPRPRPRPFMEPRP | -0.239
RRIRTRPPRLPRPRPRPRSSPRP | 0.0755
RRIRGRPPRLPRPRPRPPCQPRP | 0.283
RRIRRRPPRLPRPRPRPNRIPRP | 0.0217
RRIRCRPPRLPRPRPRPFHWPRP | -0.195
RRIRSRPPRLPRPRPRPIWLPRP | 0.222
RRIRFRPPRLPRPRPRPGTGPRP | -0.124
RRIRFRPPRLPRPRPRPCTPPRP | -0.158
RRIRHRPPRLPRPRPRPGSFPRP | -0.176
RRIRARPPRLPRPRPRPGSEPRP | 0.0951
RRIRDRPPRLPRPRPRPKFWPRP | 0.442
RRIRSRPPRLPRPRPRPEEFPRP | -0.00122
RRIRPRPPRLPRPRPRPTKMPRP | 0.0417
RRIRCRPPRLPRPRPRPHAQPRP | 0.0778
RRIRYRPPRLPRPRPRPYDYPRP | -0.145
RRIRFRPPRLPRPRPRPGCTPRP | -0.116
RRIRERPPRLPRPRPRPPMAPRP | 0.149
RRIRERPPRLPRPRPRPANLPRP | -0.254
RRIRWRPPRLPRPRPRPDTVPRP | -0.0246

Sequence | shrunken log2 fold change
RRIRLRPPRLPRPRPRPMVHPRP | 0.012
RRIRTRPPRLPRPRPRPNELPRP | -0.0115
RRIRARPPRLPRPRPRPTGWPRP | 0.756
RRIRSRPPRLPRPRPRPITPPRP | 0.0356
RRIRGRPPRLPRPRPRPEHPPRP | 0.281
RRIRERPPRLPRPRPRPMCNPRP | -0.0237
RRIRCRPPRLPRPRPRPNKNPRP | -0.344
RRIRARPPRLPRPRPRPFCDPRP | 0.0183
RRIRRRPPRLPRPRPRPYMIPRP | -0.263
RRIRWRPPRLPRPRPRPEKPPRP | 2.12
RRIRLRPPRLPRPRPRPMIHPRP | -0.186
RRIRQRPPRLPRPRPRPPPWPRP | 0.981
RRIRLRPPRLPRPRPRPMMFPRP | -0.269
RRIRERPPRLPRPRPRPKLDPRP | -0.052
RRIRLRPPRLPRPRPRPGVTPRP | 0.0426
RRIRARPPRLPRPRPRPHWFPRP | 0.0804
RRIRMRPPRLPRPRPRPIDTPRP | 0.0143
RRIRHRPPRLPRPRPRPLGKPRP | -0.239
RRIRCRPPRLPRPRPRPTKLPRP | -0.132
RRIRSRPPRLPRPRPRPGPYPRP | -0.325
RRIRKRPPRLPRPRPRPPFVPRP | 0.209
RRIRCRPPRLPRPRPRPAGYPRP | -0.342
RRIRKRPPRLPRPRPRPITTPRP | -0.174
RRIRKRPPRLPRPRPRPIHKPRP | -0.211
RRIRHRPPRLPRPRPRPADAPRP | -0.0349

Sequence | shrunken log2 fold change
RRIRLRPPRLPRPRPRPLGSPRP | -0.00618
RRIRHRPPRLPRPRPRPDDNPRP | -0.0371
RRIRDRPPRLPRPRPRPYELPRP | -0.118
RRIRYRPPRLPRPRPRPCGFPRP | -0.241
RRIRARPPRLPRPRPRPFNTPRP | -0.189
RRIRLRPPRLPRPRPRPFTQPRP | -0.337
RRIRHRPPRLPRPRPRPFLPPRP | -0.671
RRIRWRPPRLPRPRPRPWFVPRP | -0.168
RRIRRRPPRLPRPRPRPMDWPRP | 0.516
RRIRCRPPRLPRPRPRPQPDPRP | 0.102
RRIRMRPPRLPRPRPRPHCMPRP | -0.122
RRIRTRPPRLPRPRPRPESRPRP | -0.0705
RRIRTRPPRLPRPRPRPIPTPRP | -0.606
RRIRKRPPRLPRPRPRPKQEPRP | -0.104
RRIRGRPPRLPRPRPRPICYPRP | 0.543
RRIRVRPPRLPRPRPRPYGLPRP | -0.00518
RRIRFRPPRLPRPRPRPELAPRP | 0.0952
RRIRRRPPRLPRPRPRPRCVPRP | 0.402
RRIRQRPPRLPRPRPRPVQPPRP | 0.0898
RRIRLRPPRLPRPRPRPKKSPRP | 0.018
RRIRLRPPRLPRPRPRPNTLPRP | -0.136
RRIRIRPPRLPRPRPRPIACPRP | -0.0842
RRIRARPPRLPRPRPRPCMVPRP | -0.0554
RRIRMRPPRLPRPRPRPVPTPRP | 0.5
RRIRRRPPRLPRPRPRPTGGPRP | 0.296

Source: the supplement of paper PMC9112550, “Optimization of the antimicrobial peptide Bac7 by deep mutational scanning” (BMC Biology, 2022)
